Experimental data: PMC3799435, “Dissecting the interactions of SERRATE with RNA and DICER-LIKE 1 in Arabidopsis microRNA precursor processing” (Nucleic Acids Research, 2013)

Tests used:
Details in all cases: both partners purified
[1] = target: T1, DICER-LIKE 1 (DCL1), untagged recombinant (Arabidopsis thaliana, UniProt Q9SP32 1-1909); assay: SPR; Biacore T100; 1750 RU of DCL1 immobilised via amine groups on a CM5 chip; SE injected for 70 s at 20 nM; 20 mM Tris-HCl (pH 7.0), 2 mM β-ME, 0.005% surfactant P20, 50 mM or 150 mM NaCl
T1 construct: DICER-LIKE 1 (DCL1) of Arabidopsis thaliana, 214 kDa; cDNA amplified with primers from the start codon to the stop codon; one silent mutation introduced; no extra residues at the N-terminus after SUMOstar protease; also called native DCL1; source: Sf9 insect cells (baculovirus), purified (Ni-NTA, StrepTrap, SUMOstar protease, Ni-NTA flow-through, Superdex 200); not shown: His6, N-terminal, …

[2] = target: T1, DICER-LIKE 1 (DCL1), untagged …; assay: SPR; Biacore T100; about 1750 RU of DCL1 immobilised via amine groups on a CM5 chip, no RNA; SE and its mutants injected for 70 s at 20 nM; 20 mM Tris-HCl (pH 7.0), 50 mM NaCl, 2 mM β-ME, 0.005% surfactant P20
[3] = target: T1, DICER-LIKE 1 (DCL1), untagged …; assay: SPR; Biacore T100; about 1200 RU of DCL1 (injected at 16 nM) bound beforehand to 60 RU of biotin-labelled forked RNA on an SA chip; SE and its mutants then injected for 70 s at 20 nM; 20 mM Tris-HCl (pH 7.0), 50 mM NaCl, 2 mM β-ME, 0.005% surfactant P20; RU of mutants normalised to the RU of DCL1 bound

T1 sequence (Q9SP32 whole entry): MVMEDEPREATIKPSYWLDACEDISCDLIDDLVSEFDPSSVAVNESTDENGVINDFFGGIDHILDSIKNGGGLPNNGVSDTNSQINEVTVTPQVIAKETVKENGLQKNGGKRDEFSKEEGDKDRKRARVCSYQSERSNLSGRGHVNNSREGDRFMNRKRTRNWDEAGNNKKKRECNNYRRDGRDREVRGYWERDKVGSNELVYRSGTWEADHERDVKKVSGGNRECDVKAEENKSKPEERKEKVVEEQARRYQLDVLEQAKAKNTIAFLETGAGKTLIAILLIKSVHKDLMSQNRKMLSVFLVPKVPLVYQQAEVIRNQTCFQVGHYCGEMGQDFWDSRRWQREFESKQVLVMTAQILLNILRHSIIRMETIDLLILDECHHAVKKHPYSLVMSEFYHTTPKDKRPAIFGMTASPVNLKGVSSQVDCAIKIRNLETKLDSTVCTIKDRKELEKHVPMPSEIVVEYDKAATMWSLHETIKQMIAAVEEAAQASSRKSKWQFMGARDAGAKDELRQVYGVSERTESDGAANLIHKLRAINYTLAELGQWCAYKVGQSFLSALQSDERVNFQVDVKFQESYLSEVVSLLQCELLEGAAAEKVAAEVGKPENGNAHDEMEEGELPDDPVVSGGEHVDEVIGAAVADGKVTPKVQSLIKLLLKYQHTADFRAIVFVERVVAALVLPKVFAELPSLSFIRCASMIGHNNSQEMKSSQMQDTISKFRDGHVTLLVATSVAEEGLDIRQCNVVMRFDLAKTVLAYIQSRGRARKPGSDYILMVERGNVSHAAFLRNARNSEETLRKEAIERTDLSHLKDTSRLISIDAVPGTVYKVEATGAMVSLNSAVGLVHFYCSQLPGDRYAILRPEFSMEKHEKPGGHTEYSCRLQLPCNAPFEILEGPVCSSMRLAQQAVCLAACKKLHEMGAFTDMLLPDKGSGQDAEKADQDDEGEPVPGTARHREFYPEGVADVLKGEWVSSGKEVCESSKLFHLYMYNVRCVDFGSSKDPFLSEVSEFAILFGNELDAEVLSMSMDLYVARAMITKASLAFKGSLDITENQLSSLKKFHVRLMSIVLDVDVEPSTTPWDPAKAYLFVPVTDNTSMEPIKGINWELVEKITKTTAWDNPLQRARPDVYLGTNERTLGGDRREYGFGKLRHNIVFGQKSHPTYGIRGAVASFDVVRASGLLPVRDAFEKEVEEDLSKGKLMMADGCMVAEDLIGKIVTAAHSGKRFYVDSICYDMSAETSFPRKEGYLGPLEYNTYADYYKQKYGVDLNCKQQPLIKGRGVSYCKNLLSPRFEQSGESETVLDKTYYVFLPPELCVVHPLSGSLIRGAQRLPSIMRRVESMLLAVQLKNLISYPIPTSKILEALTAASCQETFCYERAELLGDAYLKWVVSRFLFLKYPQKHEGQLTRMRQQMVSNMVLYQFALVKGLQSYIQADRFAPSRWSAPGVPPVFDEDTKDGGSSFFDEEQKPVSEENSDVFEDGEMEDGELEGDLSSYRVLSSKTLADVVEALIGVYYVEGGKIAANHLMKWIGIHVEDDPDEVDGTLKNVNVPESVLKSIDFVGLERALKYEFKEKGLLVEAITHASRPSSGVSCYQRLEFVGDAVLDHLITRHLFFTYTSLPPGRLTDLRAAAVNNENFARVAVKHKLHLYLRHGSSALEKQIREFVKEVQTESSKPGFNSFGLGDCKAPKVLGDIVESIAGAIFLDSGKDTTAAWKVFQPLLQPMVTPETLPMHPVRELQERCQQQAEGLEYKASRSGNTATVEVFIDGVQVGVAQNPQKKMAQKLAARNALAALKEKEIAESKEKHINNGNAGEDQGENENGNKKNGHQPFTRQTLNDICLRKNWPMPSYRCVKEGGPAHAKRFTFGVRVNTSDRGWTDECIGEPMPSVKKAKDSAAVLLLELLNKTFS

B1: SERRATE (SE), untagged recombinant (natural protein, Arabidopsis thaliana, UniProt Q9ZVD0 1-720, looked up)
chain: MADVNLPPSDSVDNRLPEKSTSSSPPPPPPSSSLPQQEQEQDQQQLPLRRERDSRERRDERDIERPPPNRRERDRSPLPPPRRDYKRRPSLSPPPPYRDRRHSPPQRRSPPQKRYRRDDNGYDGRRGSPRGGYGPPDRRFGYDHGGGYDREMGGRPGYGDERPHGRFMGRYQDWEGGRGGYGDASNSGNPQRDGLMSYKQFIQELEDDILPSEAERRYQEYKSEYITTQKRAFFNTHKEEDWLKNKYHPTNLLSVIERRNDLAQKVAKDFLLDLQSGTLDLGPAVTALNKSGRTSEPNSEDEAAGVGKRKRHGMGGAKENELLSAAPKAPSFTSDPKRILTDVEQTQALVRKLDSEKKIEENVLQGSETEKSGREKLHSGSTGPVVIIRGLTSVKGLEGVELLDTLVTYLWRVHGLDYYGKVETNEAKGLRHVRAEGKVSDAKGDENESKFDSHWQERLKGQDPLEVMAAKEKIDAAATEALDPHVRKIRDEKYGWKYGCGAKGCTKLFHAAEFVYKHLKLKHTELVTELTTKVREELYFQNYMNDPNAPGGQPATQQSGPRDRPIRRKPSMENRLRDDRGGRRERDGRANGNDRNDRSEDQQRGDNDGGNPGEVGYDAFGGQGGVHVPPFLSDINPPPMLMPVPGAGPLGPFVPAPPEVAMQMFRDPSGPNPPFEGSGRGGPAPFLLSPAFRQDPRRLRSYQDLDAPEEEVTVIDYRSL
notes: SERRATE (SE) of Arabidopsis thaliana, 81 kDa, 720 amino acids; cDNA amplified with primers from the start codon to the stop codon; also called native SE; untagged SE; source: Sf9 insect cells (baculovirus), purified (Ni-NTA, StrepTrap, SUMOstar protease, Ni-NTA flow-through, Superdex 200); not shown: His6, N-terminal, cleaved; Strep-tag II, N-terminal, cleaved; SUMOstar, N-terminal, cleaved
fold reduction in RUmax from 50 to 150 mM NaCl [1]: 5 fold

B2: N-terminally hexahistidine-tagged wild-type SERRATE (SE) (natural protein, Arabidopsis thaliana, UniProt Q9ZVD0 1-720, looked up)
chain: B1 chain
notes: SERRATE (SE) of Arabidopsis thaliana, 720 amino acids; tagged protein 86 kDa; primers from the start codon to the stop codon; myc tag and Strep tag II were inserted in the NotI site of the modified pENTR-D/TOPO vector, then moved to pDEST10; also called His-tagged SE; hexahistidine-tagged SE; source: Sf9 insect cells (baculovirus), purified (TALON, Superdex 200); not shown: His6, N-terminal, kept
stoichiometry N [2]: 0.7 SE:DCL1 molar ratio | stoichiometry N [3]: 2.4 SE:DCL1 molar ratio

B3: SE1–701, C-terminally truncated hexahistidine-tagged SERRATE (domain or fragment, Arabidopsis thaliana, UniProt Q9ZVD0 1-701, looked up)
chain: MADVNLPPSDSVDNRLPEKSTSSSPPPPPPSSSLPQQEQEQDQQQLPLRRERDSRERRDERDIERPPPNRRERDRSPLPPPRRDYKRRPSLSPPPPYRDRRHSPPQRRSPPQKRYRRDDNGYDGRRGSPRGGYGPPDRRFGYDHGGGYDREMGGRPGYGDERPHGRFMGRYQDWEGGRGGYGDASNSGNPQRDGLMSYKQFIQELEDDILPSEAERRYQEYKSEYITTQKRAFFNTHKEEDWLKNKYHPTNLLSVIERRNDLAQKVAKDFLLDLQSGTLDLGPAVTALNKSGRTSEPNSEDEAAGVGKRKRHGMGGAKENELLSAAPKAPSFTSDPKRILTDVEQTQALVRKLDSEKKIEENVLQGSETEKSGREKLHSGSTGPVVIIRGLTSVKGLEGVELLDTLVTYLWRVHGLDYYGKVETNEAKGLRHVRAEGKVSDAKGDENESKFDSHWQERLKGQDPLEVMAAKEKIDAAATEALDPHVRKIRDEKYGWKYGCGAKGCTKLFHAAEFVYKHLKLKHTELVTELTTKVREELYFQNYMNDPNAPGGQPATQQSGPRDRPIRRKPSMENRLRDDRGGRRERDGRANGNDRNDRSEDQQRGDNDGGNPGEVGYDAFGGQGGVHVPPFLSDINPPPMLMPVPGAGPLGPFVPAPPEVAMQMFRDPSGPNPPFEGSGRGGPAPFLLSPAFRQDPRRLRS
notes: No cleavage step of the tag is described in the purification; also called C-terminal domain deletion; source: Sf9 insect cells (baculovirus), purified (TALON, Superdex 200)
binding result [2]: binds
